Here are results for 1 protein from ChEMBL document CHEMBL2074568, “Characterization of the transport properties of human multidrug resistance protein 7 (MRP7, ABCC10)” (Mol Pharmacol, 2003).

Substrate in the data set: C[C@]12CC[C@@H]3c4ccc(O)cc4CC[C@H]3[C@@H]1CC[C@@H]2O[C@@H]1O[C@H](C(=O)O)[C@@H](O)[C@H](O)[C@H]1O
As to the kind of experiment: TP_TRANSPORTER: uptake in membrane vesicles from MRP7-expressing HEK293 cells. Format: functional, cell membranes. Particulars: Membrane vesicle.

B1: ATP-binding cassette sub-family C member 10 (Homo sapiens), Q5T3U5 (protein)
chain: MERLLAQLCGSSAAWPLPLWEGDTTGHCFTQLVLSALPHALLAVLSACYLGTPRSPDYILPCSPGWRLRLAASFLLSVFPLLDLLPVALPPGAGPGPIGLEVLAGCVAAVAWISHSLALWVLAHSPHGHSRGPLALALVALLPAPALVLTVLWHCQRGTLLPPLLPGPMARLCLLILQLAALLAYALGWAAPGGPREPWAQEPLLPEDQEPEVAEDGESWLSRFSYAWLAPLLARGACGELRQPQDICRLPHRLQPTYLARVFQAHWQEGARLWRALYGAFGRCYLALGLLKLVGTMLGFSGPLLLSLLVGFLEEGQEPLSHGLLYALGLAGGAVLGAVLQNQYGYEVYKVTLQARGAVLNILYCKALQLGPSRPPTGEALNLLGTDSERLLNFAGSFHEAWGLPLQLAITLYLLYQQVGVAFVGGLILALLLVPVNKVIATRIMASNQEMLQHKDARVKLVTELLSGIRVIKFCGWEQALGARVEACRARELGRLRVIKYLDAACVYLWAALPVVISIVIFITYVLMGHQLTATKVFTALALVRMLILPLNNFPWVINGLLEAKVSLDRIQLFLDLPNHNPQAYYSPDPPAEPSTVLELHGALFSWDPVGTSLETFISHLEVKKGMLVGIVGKVGCGKSSLLAAIAGELHRLRGHVAVRGLSKGFGLATQEPWIQFATIRDNILFGKTFDAQLYKEVLEACALNDDLSILPAGDQTEVGEKGVTLSGGQRARIALARAVYQEKELYLLDDPLAAVDADVANHLLHRCILGMLSYTTRLLCTHRTEYLERADAVLLMEAGRLIRAGPPSEILPLVQAVPKAWAENGQESDSATAQSVQNPEKTKEGLEEEQSTSGRLLQEESKKEGAVALHVYQAYWKAVGQGLALAILFSLLLMQATRNAADWWLSHWISQLKAENSSQEAQPSTSPASMGLFSPQLLLFSPGNLYIPVFPLPKAAPNGSSDIRFYLTVYATIAGVNSLCTLLRAVLFAAGTLQAAATLHRRLLHRVLMAPVTFFNATPTGRILNRFSSDVACADDSLPFILNILLANAAGLLGLLAVLGSGLPWLLLLLPPLSIMYYHVQRHYRASSRELRRLGSLTLSPLYSHLADTLAGLSVLRATGATYRFEEENLRLLELNQRCQFATSATMQWLDIRLQLMGAAVVSAIAGIALVQHQQGLANPGLVGLSLSYALSLTGLLSGLVSSFTQTEAMLVSVERLEEYTCDLPQEPQGQPLQLGTGWLTQGGVEFQDVVLAYRPGLPNALDGVTFCVQPGEKLGIVGRTGSGKSSLLLVLFRLLEPSSGRVLLDGVDTSQLELAQLRSQLAIIPQEPFLFSGTVRENLDPQGLHKDRALWQALKQCHLSEVITSMGGLDGELGEGGRSLSLGQRQLLCLARALLTDAKILCIDEATASVDQKTDQLLQQTICKRFANKTVLTIAHRLNTILNSDRVLVLQAGRVVELDSPATLRNQPHSLFQQLLQSSQQGVPASLGGP
Take B1: the Km was 57.8 µM.

Broadly, the Km is the concentration of substrate that gives half-maximal velocity.
